Biological target: F-actin (skeletal muscle actin) (Oryctolagus cuniculus, UniProt P68135)
Assay: high-speed co-sedimentation

B1: TRIOBP-4 isoform 4 (protein)
chain: MSMEQDTRALLPTQGTAWATASAPVARLQGPQGDSHQACSQEPHSPSSAEAPYCDLPRCPPALQNPLRTTTCVGQSVHSLGLGLGQEPQRVWSPTTALPAEGPAAAPKNRHQDSEGIPYLEGLARSSCTDDNDNKDEDEDPNSNTSSSQDSNTPHDTSNSSSVDWDTTERPGVVPSRNRLTEMIPRRPQEGLRADSARKATRSPARGDTAGQRKENSGSGGQSAGQHWAKLRSESGYFSLERQRSGQTQASSGTPPSGPRGTTQASSAQRDVFQAAPAQEAPQTSSLPRNTQRDTQRSTPRTSSPSRVSQRDTPRVMSTQRKNTPLSSPLRATPETLKISAPEDGTHVTPSPCVQDSSLNRTSQRDSSRTPCIQWDNPRASSPNRTTQRDNPRTPCTQRDNPRASSPNRTTQRDNPRTPCTQRDNPRASSPNRTTQRDNPRTPCAQRDNPRAASPNRSTQRDSPRTPCAQRDNPRASSPNRTAQRDNPRTPCAQRDNPRTSCTSQNTPRTPSTQADKTTASCSKWEHLRSACTQRDNPRTFSQGCTQKDNPGPPSPRRATQGSNSRNPSPHRTNKDIPWASFPLRPTQSDSPRTSSPSRTKQNQVPWASISLRPTQGDKPQTSAPTRLAHNDPPQQYSPSLATTSSSSHNPGHSSASRTSSPLHAAPRGAPQTSLESSQPPCTVCIGHRDAPRASSPPRYFQYDPFPFFPDPRSSESESPHHEPPYMPPAVCIGHRDAPRATSPPRHTQFDPFPFLPDTSDADNESPQHDPPQFPPPVCIGYRDAPRASSPPRQFPEPSFFQDLPRASTESLVPSTDSMHEPPHIPTPVCIGHRDAPSFSSPPRQAPEPSLFFQDPPGTSMESLAPSIDSLHGCPLLPPQVCIGHRDAPRASSPPRHPPSDIGLLAPSPPPGSSGSRGSAPPGETRHNLEREEYTMLADLPPPRRLAQRGPEPQAQGSNEGRTRSPGRAEVERLFGQERRKSEAPGAFQTRDEGRSQRPSQAQSQLRRQSSPAP
modifications: N-terminal GFP and C-terminal FLAG fusion on TRIOBP-4, filamentous actin
Kd: 940 nM
